From article PMC11044165, “Two Novel [^68Ga]Ga-Labeled Radiotracers Based on Metabolically Stable [Sar^11]RM26 Antagonistic Peptide for Diagnostic Positron Emission Tomography Imaging of GRPR-Positive Prostate Cancer” (ACS Omega, 2024)

Key:
[1] = in vivo; parameters: species or system BALB/C nu/nu mice; conditions: BALB/C nu/nu, mouse, iv, total radioactivity
Procedure: In vivo studies were conducted in accordance with European guidelines on laboratory animal protection and the Declaration of Helsinki. For the biodistribution and PET/CT experiments BALB/C nu/nu mice were used and the protocols were approved by the ethics committee for animal research in Uppsala (Sweden); permit number 00473/21.
After acclimatization, animals were subcutaneously injected on the right hind leg with a suspension of freshly harvested PC-3 cells (7 × 10^6 per animal) in PBS. Four weeks after, well palpable solid tumors were developed and the animals were randomly assigned in groups of four.
Animals (19 ± 2 g at the day of the experiment) were injected through the tail vein with 100 μL solution of radiopeptide under evaluation (40 pmol, 100 kBq–1 h pi, 40 pmol, 700 kBq–3 h pi) in PBS containing 1% w/v BSA. Another group of animals received a bolus injection with the radioconjugate (40 pmol, 300 kBq) in addition of 4 nmol of NOTA-PEG2-RM26–1 h pi Block group. At specified time points, animals were euthanized, tissues/organs of interest and tumors were collected, weighted, and the radioactivity content of the samples was measured.
Statistical analysis for the biodistribution data was performed with GraphPad Prism 7, employing a two-way ANOVA test with Tuckey’s posthoc analysis.

[2] = in vivo; cited from earlier work
Source text: In agreement with their preclinical data, SUV values for the pancreas for [^68Ga]Ga-SB3 and [^68Ga]Ga-RM2 were around 40, while for [^68Ga]Ga-PEG3-RM26, this value was 2-fold lower.

[3] = system: PC-3 bearing mice; conditions: mouse, in vivo; cited from earlier work
Procedure: It is quite interesting to compare the biodistribution results for the two new conjugates with their counterparts without the Gly^11/Sar^11 substitution, i.e., [^68Ga]Ga-NOTA-PEG2-RM26 and [^68Ga]Ga-NODAGA-PEG2-RM26, previously reported.[24] Despite the similar amounts of peptide and activity injected, the biodistribution data for [^68Ga]Ga-NOTA-PEG2-RM26 and [^68Ga]Ga-NODAGA-PEG2-RM26, in PC-3 bearing mice, are reported only for […].[24] Under these conditions, we are going to focus on a comparison with the data for 3 h pi.

[4] = 40 pmol, Activity in GI (gastrointestinal tract)
[5] = 40 pmol, Activity uptake in blood
[6] = 40 pmol, Activity uptake in kidneys
[7] = 40 pmol, Activity uptake in tumor
[8] = Activity in GI (gastrointestinal tract)

CC(C)C[C@H](NC(=O)C[C@H](O)[C@H](CC(C)C)NC(=O)[C@H](Cc1c[nH]cn1)NC(=O)CN(C)C(=O)[C@@H](NC(=O)[C@H](C)NC(=O)[C@H](Cc1c[nH]c2ccccc12)NC(=O)[C@H](CCC(N)=O)NC(=O)[C@@H](Cc1ccccc1)NC(=O)COCCOCCNC(=O)CCC(C(=O)O)N1CCN(CC(=O)O)CCN(CC(=O)O)CC1)C(C)C)C(N)=O (stereo partly drawn) [[^68Ga]Ga-NODAGA-PEG2-[Sar^11]RM26, metal not drawn]
tissue uptake dose at 1 h [1, 4]: 2.5 ± 0.3 %ID | tissue uptake dose at 3 h [1, 4]: 1.8 ± 0.7 %ID | tissue uptake dose at 1 h ([1]; 40 pmol, Activity in body): 3.8 ± 0.6 %ID | tissue uptake dose at 3 h ([1]; 40 pmol, Activity in body): 2.2 ± 0.9 %ID | tissue uptake at 1 h [1, 5]: < 1 %ID/g | tissue uptake at 1 h [1, 6]: < 5 %ID/g | tissue uptake at 1 h [1, 7]: 17 ± 3 %ID/g | tissue uptake at 3 h [1, 7]: 15 ± 3 %ID/g | tissue uptake dose at 1 h [1, 8]: 1.6 ± 0.2 %ID | tissue uptake dose at 1 h ([1]; Activity in body): 4 ± 3 %ID

CC(C)C[C@H](NC(=O)C[C@H](O)[C@H](CC(C)C)NC(=O)[C@H](Cc1c[nH]cn1)NC(=O)CN(C)C(=O)[C@@H](NC(=O)[C@H](C)NC(=O)[C@H](Cc1c[nH]c2ccccc12)NC(=O)[C@H](CCC(N)=O)NC(=O)[C@@H](Cc1ccccc1)NC(=O)COCCOCCNC(=O)CN1CCN(CC(=O)O)CCN(CC(=O)O)CC1)C(C)C)C(N)=O [[^68Ga]Ga-NOTA-PEG2-[Sar^11]RM26, metal not drawn]
tissue uptake dose at 1 h [1, 4]: 3 ± 0.4 %ID | tissue uptake dose at 3 h [1, 4]: 2 ± 1 %ID | tissue uptake dose at 1 h ([1]; 40 pmol, Activity in body): 5 ± 0.2 %ID | tissue uptake dose at 3 h ([1]; 40 pmol, Activity in body): 2 ± 1 %ID | tissue uptake at 1 h [1, 5]: < 1 %ID/g | tissue uptake at 1 h [1, 6]: < 5 %ID/g | tissue uptake at 1 h [1, 7]: 14 ± 3 %ID/g | tissue uptake at 3 h [1, 7]: 13 ± 1 %ID/g | tissue uptake dose at 1 h [1, 8]: 1.7 ± 0.2 %ID | tissue uptake dose at 1 h ([1]; Activity in body): 4.1 ± 0.6 %ID

DOTA-Pip-DPhe-Gln-Trp-Ala-Val-Gly-His-Sta-Leu-NH2 [[^68Ga]Ga-RM2, GRPR-targeting radioconjugate tested in clinical trials]
SUV values for the pancreas [2]: around 40

DOTA-p-aminomethylaniline-diglycolic acid-DPhe-Gln-Trp-Ala-Val-Gly-His-Leu-NHEt [[^68Ga]Ga-SB3, GRPR-targeting radioconjugate tested in clinical trials]
SUV values for the pancreas [2]: around 40

NOTA-PEG3-d-Phe-Gln-Trp-Ala-Val-Gly-His-Sta-Leu-NH2 [[^68Ga]Ga-NOTA-PEG3-RM26, GRPR-targeting radioconjugate tested in clinical trials]
Tumor/pancreas ratio [3]: over 1 | SUV values for the pancreas [2]: 2-fold lower
